Data set [1] has as its target yeast alcohol dehydrogenase (ADH) from Saccharomyces cerevisiae (Saccharomyces cerevisiae) (UniProt P00330). Put plainly: native MS.
The data set “native MS” deals with the molecule itself. Kind of data set: native MS.

Turning to “yeast alcohol dehydrogenase (ADH) from Saccharomyces cerevisiae (from UniProt P00330 1-348) (enzyme)”, the stoichiometry N in data set [1] is 4.

B1: Fenna-Matthews-Olson (FMO) antenna protein from the green sulfur bacterium Chlorobaculum tepidum (natural protein, UniProt Q46393 1-366, looked up)
chain: MALFGSNDVTTAHSDYEIVLEGGSSSWGKVKARAKVNAPPASPLLPADCDVKLNVKPLDPAKGFVRISAVFESIVDSTKNKLTIEADIANETKERRISVGEGMVSVGDFSHTFSFEGSVVNLFYYRSDAVRRNVPNPIYMQGRQFHDILMKVPLDNNDLIDTWEGTVKAIGSTGAFNDWIRDFWFIGPAFTALNEGGQRISRIEVNGLNTESGPKGPVGVSRWRFSHGGSGMVDSISRWAELFPSDKLNRPAQVEAGFRSDSQGIEVKVDGEFPGVSVDAGGGLRRILNHPLIPLVHHGMVGKFNNFNVDAQLKVVLPKGYKIRYAAPQYRSQNLEEYRWSGGAYARWVEHVCKGGVGQFEILYAQ
Take B1: in the data set “native MS”, the “stoichiometry N” value is 3.

For orientation: stoichiometry N means the number of molecules, sites or subunits per partner or assembly.

These data come from publication PMC3136621 (Analytical chemistry, 2011).
